Measurements reported in patent US9725713.

How the values were obtained:
[1] = test system: MDA-MB-231 cell surface (target molecule unidentified, whole cells) (Homo sapiens?); assay: flow
[2] = test system: MDA-MB-231 cell surface (target molecule unidentified, whole cells); assay: flow; conditions: apparent Kd on whole cells

## TCCCGAGTGACGCAGCCCCCGGCGGGATTAATCGGTGGACACGGTGGCTGAC [C23-A30]
[1]; no binding at 250 nM
  Kd: > 1000 nM

## TCCCGAGTGACGCAGCCCCCGGCGGGATTGATCGGTGGACACGGTGGCTGAC [C23-G30]
[1]; no binding at 250 nM
  Kd: > 1000 nM

## TCCCGAGTGACGCAGCCCCCGGCGGGATTNATCGGTGGACACGGTGGCTGAC [C23-P30]
[2]; n at 30 is P
  Kd: 160 nM

## TCCCGAGTGACGCAGCCCCCGGNGGGATTAATCGGTGGACACGGTGGCTGAC [Z23-A30]
[1]; n at 23 is Z, reduced binding at 250 nM, almost no binding in titration
  Kd: > 1000 nM

## TCCCGAGTGACGCAGCCCCCGGNGGGATTGATCGGTGGACACGGTGGCTGAC [Z23-G30]
[2]; n at 23 is Z
  Kd: 442 nM

## TCCCGAGTGACGCAGCCCCCGGTGGGATTAATCGGTGGACACGGTGGCTGAC [T23-A30]
[1]; no binding at 250 nM
  Kd: > 1000 nM

## TCCCGAGTGACGCAGCCCCCGGTGGGATTGATCGGTGGACACGGTGGCTGAC [T23-G30]
[1]; no binding at 250 nM
  Kd: > 1000 nM

## TCCCGAGTGACGCAGCCCCCGGTGGGATTNATCGGTGGACACGGTGGCTGAC [T23-P30]
[1]; n at 30 is P, no binding at 250 nM
  Kd: > 1000 nM

## TCCCGAGTGACGCAGCCCCCGGZGGGATTPATCGGTGGACACGGTGGCTGAC [ZAP-2012 (Z23-P30)]
[2]; AEGIS DNA, Z at 23 (6-amino-5-nitro-3-(2'-deoxyribosyl)-2(1H)-pyridone), P at 30 (2-amino-8-(2'-deoxyribosyl)-imidazo[1,2-a]-1,3,5-triazin-4(8H)one), SEQ 7/16, DPBS, 5 mM MgCl2, glucose, tRNA, BSA, 10% FBS, library background subtracted
  Kd: 30 nM
